Paper PMC7347537

Target: full-length IRG1 from Bacillus subtilis (immune-responsive gene 1, cis-aconitate decarboxylase) (Bacillus subtilis)
Experiment: SEC-MALS; Superdex 200 10/300, 20 mM Tris-HCl (pH 8.0), 150 mM NaCl, 0.4 mL/min, room temperature; DAWN-treos MALS detector

- stoichiometry N: 2
Substance: full-length IRG1 from Bacillus subtilis (immune-responsive gene 1, cis-aconitate decarboxylase) (enzyme)
